In US20150344570A1 (published 2015):

T1: FcγRIIb extracellular domain with C-terminal His tag (human, UniProt P31994 43-217)
T1 construct: extracellular domain; Soluble receptor expressed in FreeStyle293 cells, used as analyte in Biacore; also called FcgRIIb; 2b; not shown: His tag attached to the C terminus
T1 sequence (looked up): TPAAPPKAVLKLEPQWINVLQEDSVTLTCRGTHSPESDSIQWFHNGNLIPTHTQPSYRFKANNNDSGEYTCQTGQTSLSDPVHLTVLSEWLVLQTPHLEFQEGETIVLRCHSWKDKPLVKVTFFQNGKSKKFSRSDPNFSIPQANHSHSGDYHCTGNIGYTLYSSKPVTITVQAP

B1: GpH7-A5/GpH7-B3 variant S267_14T/GpL16-k0 (antibody, human IgG1, kappa)
heavy 1: not shown
heavy 2: not shown
light: DIVMTQSPLSLPVTPGEPASISCQASESLVHSNRNTYLHWYLQKPGQSPQLLIYKVSNRFSGVPDRFSGSGSGTDFTLKISRVEAEDVGVYYCSQNTHVPPTFGQGTKVEIERTVAAPSVFIFPPSDEQLKSGTASVVCLLNNFYPREAKVQWKVDNALQSGNSQESVTEQDSKDSTYSLSSTLTLSKADYEKHKVYACEVTHQGLSSPVTKSFNRGEC
notes: Heterodimerized antibody (He Ab) with the mutation in only one H chain; also called He Ab S267T
B2: GpH7-A5/GpH7-B3 variant S324_01G/GpL16-k0 (He Ab) (antibody, human IgG1, kappa)
heavy 1: not shown
heavy 2: not shown
light: B1 light
notes: Heterodimerized anti-glypican-3 antibody; the alteration stands only in the GpH7-B3 chain
B3: GpH7-B3 variant S324_01G/GpL16-k0 (Ho Ab) (antibody, human IgG1, kappa)
heavy: not shown
light: B1 light
notes: Homodimerized anti-glypican-3 antibody; the alteration stands in both H chains
B4: GpH7-B3 variant Y300_08L/GpL16-k0 (Ho Ab) (antibody, human IgG1, kappa)
heavy: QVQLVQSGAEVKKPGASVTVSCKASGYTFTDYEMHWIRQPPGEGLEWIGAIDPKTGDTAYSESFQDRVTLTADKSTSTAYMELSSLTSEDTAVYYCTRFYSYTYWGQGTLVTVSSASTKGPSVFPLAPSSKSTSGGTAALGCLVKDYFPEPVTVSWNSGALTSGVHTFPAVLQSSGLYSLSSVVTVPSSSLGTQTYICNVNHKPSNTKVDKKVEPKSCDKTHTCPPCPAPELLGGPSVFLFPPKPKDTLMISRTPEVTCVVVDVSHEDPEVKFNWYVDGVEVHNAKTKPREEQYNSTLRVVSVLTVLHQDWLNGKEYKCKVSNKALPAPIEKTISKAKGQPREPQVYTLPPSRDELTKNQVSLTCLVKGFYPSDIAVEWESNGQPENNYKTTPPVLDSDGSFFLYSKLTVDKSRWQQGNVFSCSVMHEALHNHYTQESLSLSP
light: B1 light
notes: as for B3
B5: GpH7-A5/GpH7-B3 variant S267_19Q/GpL16-k0 (antibody, human IgG1, kappa)
heavy 1: not shown
heavy 2: not shown
light: B1 light
notes: Heterodimerized antibody (He Ab) with the mutation in only one H chain; also called He Ab S267Q
B6: GpH7-A5/GpH7-B3 variant Y300_08L/GpL16-k0 (He Ab) (antibody, human IgG1, kappa)
heavy 1: not shown
heavy 2: not shown
light: B1 light
notes: as for B2
B7: GpH7-A5/GpH7-B3 variant S267_15Y/GpL16-k0 (antibody, human IgG1, kappa)
heavy 1: not shown
heavy 2: not shown
light: B1 light
notes: Heterodimerized antibody (He Ab) with the mutation in only one H chain; also called He Ab S267Y
B8: GpH7-A5/GpH7-B3 variant S337_16H/GpL16-k0 (He Ab) (antibody, human IgG1, kappa)
heavy 1: not shown
heavy 2: not shown
light: B1 light
notes: as for B2
B9: GpH7-B3 variant S324_14T/GpL16-k0 (Ho Ab) (antibody, human IgG1, kappa)
heavy: not shown
light: B1 light
notes: as for B3
B10: GpH7-A5/GpH7-B3 variant Y296_20W/GpL16-k0 (He Ab) (antibody, human IgG1, kappa)
heavy 1: not shown
heavy 2: not shown
light: B1 light
notes: as for B2
B11: GpH7-B3 variant S337_16H/GpL16-k0 (Ho Ab) (antibody, human IgG1, kappa)
heavy: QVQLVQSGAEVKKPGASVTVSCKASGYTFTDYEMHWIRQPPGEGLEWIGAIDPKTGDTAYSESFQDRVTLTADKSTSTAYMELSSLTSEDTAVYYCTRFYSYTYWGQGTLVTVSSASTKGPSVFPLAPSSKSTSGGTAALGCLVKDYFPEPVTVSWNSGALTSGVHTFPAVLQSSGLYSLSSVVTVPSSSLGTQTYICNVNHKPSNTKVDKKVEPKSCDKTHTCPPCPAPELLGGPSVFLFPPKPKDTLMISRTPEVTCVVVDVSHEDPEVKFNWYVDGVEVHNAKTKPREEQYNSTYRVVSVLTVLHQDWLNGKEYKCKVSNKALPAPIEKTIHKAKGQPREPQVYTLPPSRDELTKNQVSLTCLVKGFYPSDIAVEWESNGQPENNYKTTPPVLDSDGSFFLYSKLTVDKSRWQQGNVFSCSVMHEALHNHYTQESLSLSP
light: B1 light
notes: as for B3
B12: GpH7-B3 variant T335_05P/GpL16-k0 (Ho Ab) (antibody, human IgG1, kappa)
heavy: not shown
light: B1 light
notes: as for B3
B13: GpH7-B3 variant T335_09D/GpL16-k0 (Ho Ab) (antibody, human IgG1, kappa)
heavy: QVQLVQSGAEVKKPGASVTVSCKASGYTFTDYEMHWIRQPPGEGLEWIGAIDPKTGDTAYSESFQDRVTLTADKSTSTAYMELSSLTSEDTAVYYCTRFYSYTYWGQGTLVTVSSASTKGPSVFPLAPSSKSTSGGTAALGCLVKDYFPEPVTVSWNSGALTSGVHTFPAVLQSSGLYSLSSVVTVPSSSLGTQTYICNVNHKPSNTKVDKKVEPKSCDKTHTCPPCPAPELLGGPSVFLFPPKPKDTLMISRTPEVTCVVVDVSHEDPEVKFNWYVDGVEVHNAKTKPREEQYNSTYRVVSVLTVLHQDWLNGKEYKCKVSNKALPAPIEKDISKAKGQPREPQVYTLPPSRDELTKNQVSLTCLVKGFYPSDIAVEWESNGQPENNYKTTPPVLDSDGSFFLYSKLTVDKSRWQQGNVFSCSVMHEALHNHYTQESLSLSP
light: B1 light
notes: as for B3
B14: GpH7-B3 variant T335_08L/GpL16-k0 (Ho Ab) (antibody, human IgG1, kappa)
heavy: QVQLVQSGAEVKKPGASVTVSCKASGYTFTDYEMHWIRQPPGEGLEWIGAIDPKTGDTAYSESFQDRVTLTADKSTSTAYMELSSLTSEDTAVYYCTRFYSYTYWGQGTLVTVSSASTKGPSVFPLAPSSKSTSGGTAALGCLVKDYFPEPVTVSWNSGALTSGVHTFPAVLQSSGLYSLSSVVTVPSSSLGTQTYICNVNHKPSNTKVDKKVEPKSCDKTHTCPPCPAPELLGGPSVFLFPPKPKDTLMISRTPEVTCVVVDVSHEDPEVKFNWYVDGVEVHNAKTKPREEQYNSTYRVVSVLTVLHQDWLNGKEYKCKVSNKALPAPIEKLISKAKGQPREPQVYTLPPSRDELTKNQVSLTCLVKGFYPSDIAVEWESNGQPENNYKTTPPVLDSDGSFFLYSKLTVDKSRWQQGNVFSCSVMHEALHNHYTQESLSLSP
light: B1 light
notes: as for B3
B15: GpH7-A5/GpH7-B3 variant S324_14T/GpL16-k0 (He Ab) (antibody, human IgG1, kappa)
heavy 1: not shown
heavy 2: not shown
light: B1 light
notes: as for B2
B16: GpH7-B3 variant S324_06M/GpL16-k0 (Ho Ab) (antibody, human IgG1, kappa)
heavy: not shown
light: B1 light
notes: as for B3
B17: GpH7-A5/GpH7-B3 variant S324_09D/GpL16-k0 (He Ab) (antibody, human IgG1, kappa)
heavy 1: not shown
heavy 2: not shown
light: B1 light
notes: as for B2
B18: GpH7-B3 variant S324_09D/GpL16-k0 (Ho Ab) (antibody, human IgG1, kappa)
heavy: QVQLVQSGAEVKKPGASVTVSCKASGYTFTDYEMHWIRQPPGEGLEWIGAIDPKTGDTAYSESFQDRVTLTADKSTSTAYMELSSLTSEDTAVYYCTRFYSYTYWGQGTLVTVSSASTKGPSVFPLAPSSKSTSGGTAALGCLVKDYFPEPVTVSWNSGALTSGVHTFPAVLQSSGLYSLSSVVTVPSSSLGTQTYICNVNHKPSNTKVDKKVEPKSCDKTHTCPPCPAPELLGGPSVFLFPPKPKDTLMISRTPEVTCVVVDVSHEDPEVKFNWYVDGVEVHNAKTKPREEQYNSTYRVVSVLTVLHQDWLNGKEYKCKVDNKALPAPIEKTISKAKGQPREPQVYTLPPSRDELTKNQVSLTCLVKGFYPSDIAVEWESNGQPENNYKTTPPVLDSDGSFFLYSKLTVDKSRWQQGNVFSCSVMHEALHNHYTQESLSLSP
light: B1 light
notes: as for B3
B19: GpH7-B3 variant Y296_20W/GpL16-k0 (Ho Ab) (antibody, human IgG1, kappa)
heavy: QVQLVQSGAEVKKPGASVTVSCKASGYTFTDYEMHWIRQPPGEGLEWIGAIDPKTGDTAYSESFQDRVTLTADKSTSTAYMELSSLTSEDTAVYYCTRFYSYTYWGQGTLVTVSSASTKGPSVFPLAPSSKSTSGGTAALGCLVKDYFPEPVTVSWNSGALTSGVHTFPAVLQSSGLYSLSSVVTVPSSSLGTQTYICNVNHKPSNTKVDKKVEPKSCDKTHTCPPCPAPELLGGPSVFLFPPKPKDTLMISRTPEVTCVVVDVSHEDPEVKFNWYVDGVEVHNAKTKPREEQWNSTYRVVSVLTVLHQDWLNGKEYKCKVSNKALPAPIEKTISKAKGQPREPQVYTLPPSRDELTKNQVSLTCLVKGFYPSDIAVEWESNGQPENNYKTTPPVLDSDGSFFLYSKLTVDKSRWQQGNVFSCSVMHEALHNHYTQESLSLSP
light: B1 light
notes: as for B3
B20: GpH7-A5/GpH7-B3 variant T335_05P/GpL16-k0 (He Ab) (antibody, human IgG1, kappa)
heavy 1: not shown
heavy 2: not shown
light: B1 light
notes: as for B2
B21: GpH7-A5/GpH7-B3 variant T335_08L/GpL16-k0 (He Ab) (antibody, human IgG1, kappa)
heavy 1: not shown
heavy 2: not shown
light: B1 light
notes: as for B2
B22: GpH7-A5/GpH7-B3 variant T335_06M/GpL16-k0 (He Ab) (antibody, human IgG1, kappa)
heavy 1: not shown
heavy 2: not shown
light: B1 light
notes: as for B2
B23: GpH7-B3 variant S239_10E/GpL16-k0 (Ho Ab) (antibody, human IgG1, kappa)
heavy: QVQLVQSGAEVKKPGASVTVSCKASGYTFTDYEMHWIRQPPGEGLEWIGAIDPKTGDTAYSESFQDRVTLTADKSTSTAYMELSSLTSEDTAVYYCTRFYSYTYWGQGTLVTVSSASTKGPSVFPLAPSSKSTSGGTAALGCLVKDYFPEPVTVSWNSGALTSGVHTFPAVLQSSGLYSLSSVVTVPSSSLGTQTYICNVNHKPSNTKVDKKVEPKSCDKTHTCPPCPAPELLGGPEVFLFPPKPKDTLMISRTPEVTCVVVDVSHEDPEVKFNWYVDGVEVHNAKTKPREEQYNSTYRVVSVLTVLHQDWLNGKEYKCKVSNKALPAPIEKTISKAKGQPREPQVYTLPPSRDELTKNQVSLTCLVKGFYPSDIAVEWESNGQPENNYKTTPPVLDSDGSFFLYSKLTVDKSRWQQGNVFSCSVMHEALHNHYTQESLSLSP
light: B1 light
notes: Homodimerized anti-glypican-3 antibody; the alteration stands in both H chains (GpH7-B3 = GpH7-G1d with K439E)
B24: GpH7-A5/GpH7-B3 variant S324_06M/GpL16-k0 (He Ab) (antibody, human IgG1, kappa)
heavy 1: not shown
heavy 2: not shown
light: B1 light
notes: as for B2
B25: GpH7-A5/GpH7-B3 variant S239_18N/GpL16-k0 (He Ab) (antibody, human IgG1, kappa)
heavy 1: not shown
heavy 2: not shown
light: B1 light
notes: as for B2
B26: GpH7-A5/GpH7-B3 variant T335_09D/GpL16-k0 (He Ab) (antibody, human IgG1, kappa)
heavy 1: not shown
heavy 2: not shown
light: B1 light
notes: as for B2
B27: GpH7-B3 variant S337_01G/GpL16-k0 (Ho Ab) (antibody, human IgG1, kappa)
heavy: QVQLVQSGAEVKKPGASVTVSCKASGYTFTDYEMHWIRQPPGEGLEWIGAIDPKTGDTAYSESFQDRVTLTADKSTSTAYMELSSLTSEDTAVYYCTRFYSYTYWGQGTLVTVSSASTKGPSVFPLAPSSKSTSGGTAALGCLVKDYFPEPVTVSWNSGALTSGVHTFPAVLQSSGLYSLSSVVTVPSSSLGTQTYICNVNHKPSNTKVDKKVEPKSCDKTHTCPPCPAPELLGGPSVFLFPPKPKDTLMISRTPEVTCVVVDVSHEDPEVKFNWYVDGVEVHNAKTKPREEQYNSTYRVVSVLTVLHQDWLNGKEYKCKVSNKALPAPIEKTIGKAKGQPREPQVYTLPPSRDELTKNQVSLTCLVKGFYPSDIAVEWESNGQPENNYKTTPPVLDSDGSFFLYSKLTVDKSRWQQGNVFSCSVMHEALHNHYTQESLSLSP
light: B1 light
notes: as for B3
B28: GpH7-B3 variant S324_20W/GpL16-k0 (Ho Ab) (antibody, human IgG1, kappa)
heavy: not shown
light: B1 light
notes: as for B3
B29: GpH7-A5/GpH7-B3 variant S337_01G/GpL16-k0 (He Ab) (antibody, human IgG1, kappa)
heavy 1: not shown
heavy 2: not shown
light: B1 light
notes: as for B2
B30: GpH7-A5/GpH7-B3 variant S239_10E/GpL16-k0 (He Ab) (antibody, human IgG1, kappa)
heavy 1: not shown
heavy 2: not shown
light: B1 light
notes: as for B2
B31: GpH7-B3 variant S298_03V/GpL16-k0 (Ho Ab) (antibody, human IgG1, kappa)
heavy: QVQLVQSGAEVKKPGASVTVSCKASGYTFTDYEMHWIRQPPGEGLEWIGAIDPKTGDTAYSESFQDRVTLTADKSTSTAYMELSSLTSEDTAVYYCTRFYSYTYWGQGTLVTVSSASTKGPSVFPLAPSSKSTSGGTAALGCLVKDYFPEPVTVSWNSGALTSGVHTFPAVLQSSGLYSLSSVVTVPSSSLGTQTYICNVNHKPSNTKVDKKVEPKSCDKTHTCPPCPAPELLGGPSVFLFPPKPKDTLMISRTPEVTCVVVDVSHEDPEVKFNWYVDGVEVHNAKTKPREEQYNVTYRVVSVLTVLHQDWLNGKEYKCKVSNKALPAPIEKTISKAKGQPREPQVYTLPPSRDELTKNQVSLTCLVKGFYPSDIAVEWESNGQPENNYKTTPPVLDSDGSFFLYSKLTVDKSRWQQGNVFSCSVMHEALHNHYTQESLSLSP
light: B1 light
notes: as for B3
B32: GpH7-A5/GpH7-B3 variant S267_16H/GpL16-k0 (antibody, human IgG1, kappa)
heavy 1: not shown
heavy 2: not shown
light: B1 light
notes: Heterodimerized antibody (He Ab) with the mutation in only one H chain; also called He Ab S267H
B33: GpH7-A5/GpH7-B3 variant S267_20W/GpL16-k0 (antibody, human IgG1, kappa)
heavy 1: not shown
heavy 2: not shown
light: B1 light
notes: Heterodimerized antibody (He Ab) with the mutation in only one H chain; also called He Ab S267W
B34: GpH7-B3 variant T335_06M/GpL16-k0 (Ho Ab) (antibody, human IgG1, kappa)
heavy: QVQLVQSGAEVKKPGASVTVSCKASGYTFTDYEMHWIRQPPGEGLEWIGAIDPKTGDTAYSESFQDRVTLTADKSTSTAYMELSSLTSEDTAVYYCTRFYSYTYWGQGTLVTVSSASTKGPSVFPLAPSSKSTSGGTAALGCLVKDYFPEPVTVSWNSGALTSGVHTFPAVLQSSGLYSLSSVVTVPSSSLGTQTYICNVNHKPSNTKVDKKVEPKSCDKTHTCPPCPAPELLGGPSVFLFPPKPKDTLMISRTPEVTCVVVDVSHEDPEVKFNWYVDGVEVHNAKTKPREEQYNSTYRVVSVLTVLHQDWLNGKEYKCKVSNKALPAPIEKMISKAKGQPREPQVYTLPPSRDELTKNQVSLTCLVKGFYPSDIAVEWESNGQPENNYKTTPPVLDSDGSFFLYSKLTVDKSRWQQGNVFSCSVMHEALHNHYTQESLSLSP
light: B1 light
notes: as for B3
B35: GpH7-B3 variant S239_18N/GpL16-k0 (Ho Ab) (antibody, human IgG1, kappa)
heavy: not shown
light: B1 light
notes: as for B3
B36: GpH7-A5/GpH7-B3 variant S324_20W/GpL16-k0 (He Ab) (antibody, human IgG1, kappa)
heavy 1: not shown
heavy 2: not shown
light: B1 light
notes: as for B2
B37: GpH7-A5/GpH7-B3 variant S298_03V/GpL16-k0 (He Ab) (antibody, human IgG1, kappa)
heavy 1: not shown
heavy 2: not shown
light: B1 light
notes: as for B2

How the values were obtained:
[1] = target: T2, FcγRIIIa extracellular domain with C-terminal His tag (human, UniProt P08637 17-208); experiment: SPR (Biacore); He/Con_3a (FcγRIIIa) divided by He/Con_2b (FcγRIIb)
T2 construct: extracellular domain; also called FcgRIIIa; 3a; not shown: His tag attached to the C terminus

[2] = target: T1, FcγRIIb extracellular domain with …; experiment: SPR (Biacore T100), antibody captured on antigen peptide chip, FcγR as analyte
Method: (§1) Analysis of interaction between objective antibody and the FcγR was carried out using Biacore T100 (GE Healthcare). HBS-EP+ (GE Healthcare) was used as the running buffer, and the measurement temperature was set to 25° C. Chips produced by immobilizing the antigen peptide by the amine coupling method to a Series S Sencor Chip CM5 (GE Healthcare), or alternatively, chips produced by allowing preliminarily biotinylated antigen peptides to interact with and immobilize onto a Series S Sensor Chip SA (certified) (GE Healthcare) were used. Antibodies of interest were captured onto an antigen peptide-immobilized chip, and allowed to interact to each FcγR diluted with running buffer. To regenerate and repeatedly use the chip, the antibodies captured on the chip were washed off by reacting 10 mM glycine-HCl, pH 1.5.

[3] = target: T2, FcγRIIIa extracellular domain with …; experiment: as above
Method: as §1

[4] = target: T3, FcγRIIIa (human, UniProt P08637 17-208); experiment: SPR (Biacore), antibody captured on antigen-peptide chip, FcγR as analyte; binding of He Ab / binding of HeCon Ab GpH7-A5/GpH7-B3/GpL16-k0 x 100
T3 construct: extracellular domain; also called 3a; FcgRIIIa

[5] = target: T3, FcγRIIIa; experiment: SPR (Biacore), antibody captured on antigen-peptide chip, FcγR as analyte; binding of Ho Ab / binding of HoCon Ab GpH7-B3/GpL16-k0 x 100
Method: as §1

T3 sequence (P08637 17-208): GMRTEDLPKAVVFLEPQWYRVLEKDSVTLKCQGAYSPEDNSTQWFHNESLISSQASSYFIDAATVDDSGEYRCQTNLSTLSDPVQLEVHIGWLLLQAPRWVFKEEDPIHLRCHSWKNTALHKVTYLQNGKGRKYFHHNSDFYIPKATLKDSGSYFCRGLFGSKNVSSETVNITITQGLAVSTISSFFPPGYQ
T2 sequence (P08637 17-208): as above

| Binder | He/Con_3a [4] | Ho/Con_3a [5] | also measured |
| --- | --- | --- | --- |
| B1 | – | – | He_3a/2b (IIIa/IIb) [1]: 0.44 ratio; He/Con_2b [2]: 104 relative binding, GpH7-A5/GpH7-B3/GpL16-k0 = 100; He/Con_3a [3]: 45.6 relative binding, GpH7-A5/GpH7-B3/GpL16-k0 = 100 |
| B2 | 105 relative to control = 100 | – | – |
| B3 | – | 119 relative to control = 100 | – |
| B4 | – | 105 relative to control = 100 | – |
| B5 | – | – | He_3a/2b (IIIa/IIb) [1]: 0.3 ratio; He/Con_2b [2]: 218 relative binding, GpH7-A5/GpH7-B3/GpL16-k0 = 100; He/Con_3a [3]: 65 relative binding, GpH7-A5/GpH7-B3/GpL16-k0 = 100 |
| B6 | 105 relative to control = 100 | – | – |
| B7 | – | – | He_3a/2b (IIIa/IIb) [1]: 0.31 ratio; He/Con_2b [2]: 37.9 relative binding, GpH7-A5/GpH7-B3/GpL16-k0 = 100; He/Con_3a [3]: 11.8 relative binding, GpH7-A5/GpH7-B3/GpL16-k0 = 100 |
| B8 | 108 relative to control = 100 | – | – |
| B9 | – | 108 relative to control = 100 | – |
| B10 | 135 relative to control = 100 | – | – |
| B11 | – | 112 relative to control = 100 | – |
| B12 | – | 119 relative to control = 100 | – |
| B13 | – | 114 relative to control = 100 | – |
| B14 | – | 103 relative to control = 100 | – |
| B15 | 103 relative to control = 100 | – | – |
| B16 | – | 114 relative to control = 100 | – |
| B17 | 101 relative to control = 100 | – | – |
| B18 | – | 101 relative to control = 100 | – |
| B19 | – | 146 relative to control = 100 | – |

| Binder | He/Con_3a [4] | Ho/Con_3a [5] | also measured |
| --- | --- | --- | --- |
| B20 | 105 relative to control = 100 | – | – |
| B21 | 102 relative to control = 100 | – | – |
| B22 | 102 relative to control = 100 | – | – |
| B23 | – | 252 relative to control = 100 | – |
| B24 | 113 relative to control = 100 | – | – |
| B25 | 110 relative to control = 100 | – | – |
| B26 | 108 relative to control = 100 | – | – |
| B27 | – | 108 relative to control = 100 | – |
| B28 | – | 102 relative to control = 100 | – |
| B29 | 102 relative to control = 100 | – | – |
| B30 | 181 relative to control = 100 | – | – |
| B31 | – | 110 relative to control = 100 | – |
| B32 | – | – | He_3a/2b (IIIa/IIb) [1]: 0.27 ratio; He/Con_2b [2]: 65.9 relative binding, GpH7-A5/GpH7-B3/GpL16-k0 = 100; He/Con_3a [3]: 17.9 relative binding, GpH7-A5/GpH7-B3/GpL16-k0 = 100 |
| B33 | – | – | He_3a/2b (IIIa/IIb) [1]: 0.37 ratio; He/Con_2b [2]: 57.2 relative binding, GpH7-A5/GpH7-B3/GpL16-k0 = 100; He/Con_3a [3]: 21.5 relative binding, GpH7-A5/GpH7-B3/GpL16-k0 = 100 |
| B34 | – | 107 relative to control = 100 | – |
| B35 | – | 116 relative to control = 100 | – |
| B36 | 102 relative to control = 100 | – | – |
| B37 | 109 relative to control = 100 | – | – |
